Here are results for 3 molecules from publication PMC4367193 (Biochemistry, 2009).

For data set [1], the target named is T1, Aβ42WT (Homo sapiens, UniProt P05067). In kind it is biochemical. The following applies: 37°C.
Data set [2] concerns the target T1, Aβ42WT. The data set is described as follows: Circular dichroism spectroscopy, Aβ42WT β-sheet formation. Format: biochemical.
Data set [3] has as its system Aβ40DI. The following applies: previous study; ref [25] Hoos et al. 2007; cited from earlier work.
Data set [4] addresses T1, Aβ42WT. The data set is described as follows: Surface plasmon resonance, binding to immobilised Aβ42WT. For orientation: Surface plasmon resonance follows binding to a sensor surface in real time, without labels.
The target of data set [5] is T1, Aβ42WT. The data set is described as follows: Attenuated total reflection infrared spectroscopy, Aβ42WT β-sheet formation. In kind it is biochemical. The following applies: Aβ42 50 μM in PBS, MBP 6.25 μM, 37°C, 24 h; second-derivative ATR-IR.
Data set [6] deals with Aβ. Format: binding, 5xFAD mouse. The following applies: soluble cortical homogenate, polyclonal anti-MBP IgG, Fig. 1D.
In data set [7] the target is T1, Aβ42WT. The data set is described as follows: Thioflavin T fluorescence assay, Aβ42WT fibril formation. In kind it is biochemical. The following applies: Aβ42 12.5 μM, MBP 1.56 μM, 37°C, 150 mM NaCl; triplicate.
The test system of data set [8] is Aβ. In kind it is binding, human. The following applies: soluble cortical homogenate, polyclonal anti-MBP IgG, Fig. 1D.
Data set [9] has as its target Aβ40DI. The data set is described as follows: Surface plasmon resonance, binding to Aβ40DI. The following applies: ECP negative control; SPR.
In data set [10] the target is Aβ40WT. The data set is described as follows: Surface plasmon resonance, binding to Aβ40WT. The following applies: ECP negative control; SPR.
In data set [11] the test system is MBP/Aβ42WT interaction. The data set is described as follows: Competitive co-immunoprecipitation, binding of Aβ42WT to MBP. On the set-up: species or system human. The following applies: data not shown.

T1 sequence (P05067 672-713 limits assumed): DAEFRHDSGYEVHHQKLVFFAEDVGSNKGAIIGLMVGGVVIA

As to “Aβ42WT: wild-type Aβ42 peptide, synthesized by solid-phase Fmoc chemistry”, in data set [1] (Aβ42WT alone, 6 h), the “Length of oligomeric structures” value is on record as “up to 40 nm”. Moreover, in data set [1] (Aβ42WT alone, 24 h), the “Average height of fibrillar structures” value is reported as “over 4 nm”. The “Time at which β-sheet formation begins to plateau (CD, 215 nm)” value in data set [2] (Aβ42WT alone 50 μM, 37°C, 11 mM NaCl, results section) is 24 h.

B1: MBP: Purified human MBP (purchased from Chemicon International) (protein, UniProt P02686 1-304, looked up)
Myelin basic protein: MGNHAGKRELNAEKASTNSETNRGESEKKRNLGELSRTTSEDNEVFGEADANQNNGTSSQDTAVTDSKRTADPKNAWQDAHPADPGSRPHLIRLFSRDAPGREDNTFKDRPSESDELQTIQEDSAATSESLDVMASQKRPSQRHGSKYLATASTMDHARHGFLPRHRDTGILDSIGRFFGGDRGAPKRGSGKDSHHPARTAHYGSLPQKSHGRTQDENPVVHFFKNIVTPRTPPPSQGKGRGLSLSRFSWGAEGQRPGFGYGGRASDYKSAHKGFKGVDAQGTLSKIFKLGGRDSRSGSPMARR
For B1, in [3], the “Inhibition of fibrillar assembly of Aβ40DI” value is listed as “effectively inhibits the fibrillar assembly of Aβ40DI”. Besides, in data set [4] (calculated KD between MBP and Aβ42WT versus affinity between MBP and Aβ40DI (ref [25])), the “KD with Aβ42WT compared with Aβ40DI” value was “comparable to the affinity between MBP and Aβ40DI”. Besides, the “KD with Aβ42WT compared with Aβ40WT” value in [4] (calculated KD between MBP and Aβ42WT versus that between MBP and Aβ40WT (ref [25])) was “stronger than that between MBP and Aβ40WT”. For the same molecule, the “β-turn peaks at 1681 and 1675 cm^−1 on addition of MBP” value in data set [5] was “remained unchanged even with the addition of MBP”. For the same molecule, the “Interaction of MBP with Aβ in 5xFAD mouse brain homogenate” value in data set [6] was “MBP can interact with Aβ peptides”. In addition, the “Thioflavin-T fluorescence in samples containing Aβ42WT and MBP” value in [7] is given as “lack of thioflavin-T fluorescence”. Further, the “Oligomeric structures at 6 h in the presence of MBP” value in [1] (6 h, AFM and TEM) is on record as “marked reduction”. The “Fibrils at 24 h in the presence of MBP” value in data set [1] (24 h, TEM) is given as “noticeably absent”. Besides, in data set [8], the “Interaction of MBP with Aβ in human AD brain homogenate” value is “MBP can interact with Aβ peptides”. Moreover, the “Absolute CD ellipticity at 215 nm with MBP” value in [2] (MBP alone and Aβ42WT (50 μM) with MBP (6.25 μM), 37°C, 0-36 h) was “remained low and decreased somewhat over the course of incubation”. The “Conformation of MBP alone by CD” value in data set [2] (MBP alone, throughout the time-course, data not shown) was “characteristic random-coil conformation”.

B2: ECP: Eosinophil cationic protein, very similar charge and molecular mass compared to MBP, negative control (protein, UniProt P12724 28-160, looked up)
Eosinophil cationic protein: RPPQFTRAQWFAIQHISLNPPRCTIAMRAINNYRWRCKNQNTFLRTTFANVVNVCGNQSIRCPHNRTLNNCHRSRFRVPLLHCDLINPGAQNISNCTYADRPGRRFYVVACDNRDPRDSPRYPVVPVHLDTTI
Take B2: the “Binding affinity (KD) for Aβ40DI, ECP” value in data set [9] was “not detected”. Besides, in data set [4] (concentrations up to 32-fold greater than MBP, SPR), the “Detectable binding to Aβ42WT ligand surface” value is reported as “No binding could be detected”. In addition, in [10], the “Binding affinity (KD) for Aβ40WT, ECP” value was “not detected”. For the same molecule, the “Competition of ECP with MBP for binding to Aβ42” value in [11] is “did not compete for MBP binding to Aβ42”.
